Assay results taken from patent US20160115235A1 (ARES TRADING S A, published 2016).
Changes are numbered by the printed parent chain.

B1: recombinant Fab fragment of 40C01-VH1-Vk3 (Fab, V domains shown)
VH: EVQLLESGGGLVQPGGSLRLSCAASGFTFSRYVMVWVRQAPGKGLEWVSGISPSGGVTRYAASVKGRFTISRDNSKNTLYLQMNSLRAEDTAVYYCARIRKEMTTISYFFDYWGQGTLVTVSS
VL: DIQMTQSPSSLSASVGDRVTITCRASQGVDAYVAWYQQKPGKVPKLLIYSTSTLASGVPSRFSGSGSGTDFTLTISSLQPEDVATYYCQSHNAAVVTFGQGTRLEIK
B2: recombinant Fab fragment of 40C01-VH2-Vk3 (Fab, V domains shown)
VH: B1 VH with Y32S, M103K
VL: B1 VL
B3: anti-CXCR5 40C01-VH1-Vk3 as IgG4 (antibody)
heavy: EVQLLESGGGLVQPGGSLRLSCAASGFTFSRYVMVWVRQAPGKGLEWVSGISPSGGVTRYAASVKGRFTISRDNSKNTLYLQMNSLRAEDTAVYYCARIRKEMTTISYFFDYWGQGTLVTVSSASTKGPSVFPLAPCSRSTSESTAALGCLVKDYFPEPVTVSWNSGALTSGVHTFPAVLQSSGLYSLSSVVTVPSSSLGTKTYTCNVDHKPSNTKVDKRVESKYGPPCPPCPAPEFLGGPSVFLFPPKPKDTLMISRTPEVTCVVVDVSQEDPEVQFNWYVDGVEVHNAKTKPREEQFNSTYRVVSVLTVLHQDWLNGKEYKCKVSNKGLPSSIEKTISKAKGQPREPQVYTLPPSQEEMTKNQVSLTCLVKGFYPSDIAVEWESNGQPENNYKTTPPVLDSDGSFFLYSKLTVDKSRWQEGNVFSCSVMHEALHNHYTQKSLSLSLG
light: DIQMTQSPSSLSASVGDRVTITCRASQGVDAYVAWYQQKPGKVPKLLIYSTSTLASGVPSRFSGSGSGTDFTLTISSLQPEDVATYYCQSHNAAVVTFGQGTRLEIKRTVAAPSVFIFPPSDEQLKSGTASVVCLLNNFYPREAKVQWKVDNALQSGNSQESVTEQDSKDSTYSLSSTLTLSKADYEKHKVYACEVTHQGLSSPVTKSFNRGEC
B4: anti-CXCR5 40C01-VH2-Vk3 as IgG4 (antibody)
heavy: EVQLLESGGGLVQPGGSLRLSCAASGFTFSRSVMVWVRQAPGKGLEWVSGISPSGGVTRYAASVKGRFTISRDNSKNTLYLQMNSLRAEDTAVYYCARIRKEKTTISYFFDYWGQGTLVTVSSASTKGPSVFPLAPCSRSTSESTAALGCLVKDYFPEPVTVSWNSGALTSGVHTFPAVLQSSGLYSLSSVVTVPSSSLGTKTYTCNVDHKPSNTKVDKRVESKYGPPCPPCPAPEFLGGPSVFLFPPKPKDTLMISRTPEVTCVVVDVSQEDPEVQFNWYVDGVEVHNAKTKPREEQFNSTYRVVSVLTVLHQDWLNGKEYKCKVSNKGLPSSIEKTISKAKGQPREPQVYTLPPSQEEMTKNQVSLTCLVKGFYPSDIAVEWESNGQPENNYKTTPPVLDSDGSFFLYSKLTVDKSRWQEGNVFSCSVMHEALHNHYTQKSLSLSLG
light: B3 light
B5: mAb 42F03 (antibody, human IgG1, V domains shown)
VH: EVQLLESGGGLVQPGGSLRLSCAASGFTFSWYPMTWVRQAPGKGLEWVSYIRSSGGFTKYADSVKGRFTISRDNSKNTLYLQMNSLRAEDTAVYYCARGLYRWGQGTLVTVSS
VL: IQMTQSPGTLSLSPGERATLSCRASQSVSNNYLAWYQQKPGQAPRLLISGASRRATDIADRFSGSGSGTDFTLTISRLEPEDFAVYYCQQYDSFPLTFGGGTKVEIK
B6: mAb 80B09 (antibody, V domains shown)
VH: EVQLLESGGGLVQPGGSLRLSCAASGFTFSKYNMLWVRQAPGKGLEWVSVISPSGGRTSYADSVKGRFTISRDNSKNTLYLQMNSLRAEDTAVYYCARHTSITMFDYWGQGTLVTVSS
VL: QSALTQPASVSGSPGQSITISCTGTSSDIGSYNYVSWYQQHPGRAPKVMIYDVTYRPSGVSNRFSGSKSGNTASLTISGLQAEDEADYYCGSYRKSSLYVFGTGTKVTVL
B7: mAb 80A10 (antibody, V domains shown)
VH: EVQLLESGGGLVQPGGSLRLSCAASGFTFSMYVMKWVRQAPGKGLEWVSGIRSSGGDTSYADSVKGRFTISRDNSKNTLYLQMNSLRAEDTAVYYCARQSRYCNGGSCYSRAFDIWGQGTMVTVSS
VL: QPPSASGTPGQRVTISCFGSNSNIGSTYAYWYQQVPGTAPKLLIYRNNQRPSGVPDRFSGSKSGTSASLAISGLRSEDEADYYCAAWDVNLSGHWVFGGGTKLTVLG
B8: mAb 80A11 (antibody, V domains shown)
VH: EVQLLESGGGLVQPGGSLRLSCAASGFTFSRYPMGWVRQAPGKGLEWVSSISPSGGMTRYADSVKGRFTISRDNSKNTLYLQMNSLRAEDTAVYYCARLKFTSGRTFDIWGQGTMVTVSS
VL: DIQMTQSPATLSLSPGERATLSCRASQSVSSYLAWYQQKPGQAPRLLIYGASSRVPGVPDRFTGSGSETDFTLTITRLEPEDFAVYYCQLSSSSPSWTFGQGTRLEIK

Biological target: T1, human CXCR5 (human, UniProt P32302 1-372)
T1 sequence: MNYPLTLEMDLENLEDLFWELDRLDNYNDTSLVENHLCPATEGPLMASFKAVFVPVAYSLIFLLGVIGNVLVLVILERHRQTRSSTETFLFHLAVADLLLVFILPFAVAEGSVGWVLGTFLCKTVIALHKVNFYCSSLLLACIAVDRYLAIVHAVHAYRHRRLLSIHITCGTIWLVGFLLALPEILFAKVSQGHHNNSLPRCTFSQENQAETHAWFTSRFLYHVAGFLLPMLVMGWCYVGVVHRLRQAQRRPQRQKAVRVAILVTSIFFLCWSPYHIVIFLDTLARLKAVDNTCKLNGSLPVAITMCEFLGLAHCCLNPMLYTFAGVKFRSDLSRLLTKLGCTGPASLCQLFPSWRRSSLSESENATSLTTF
Assay: cell-based or functional assay

Binder | IC50, inhibition of human CXCR5-L1.2 cell chemotaxis [nM] | efficacy of inhibition of CXCL13-stimulated L1.2-CXCR5 chemotaxis [%]
B1 | 288 | 
B2 | 20.9 | 
B3 |  | 100
B4 |  | 100

Biological target: T1, human CXCR5
Assay: cell-based or functional assay
Remark: another data set of the same source

Binder | Mean IC50 (nM) on L1.2/human CXCR5 cells (chemotaxis) [nM]
B5 | 1.86
B6 | 251
B7 | 4.7
B8 | 1.85

Biological target: T1, human CXCR5
Assay: cell-based or functional assay
Remark: another data set of the same source

Binder | IC50, inhibition of CXCL13-induced L1.2-CXCR5 chemotaxis [nM]
B3 | 2.1
B4 | 0.103

Biological target: T2, rat CXCR5 (rat, UniProt P34997 1-374)
T2 construct: whole, on cells
T2 sequence (looked up): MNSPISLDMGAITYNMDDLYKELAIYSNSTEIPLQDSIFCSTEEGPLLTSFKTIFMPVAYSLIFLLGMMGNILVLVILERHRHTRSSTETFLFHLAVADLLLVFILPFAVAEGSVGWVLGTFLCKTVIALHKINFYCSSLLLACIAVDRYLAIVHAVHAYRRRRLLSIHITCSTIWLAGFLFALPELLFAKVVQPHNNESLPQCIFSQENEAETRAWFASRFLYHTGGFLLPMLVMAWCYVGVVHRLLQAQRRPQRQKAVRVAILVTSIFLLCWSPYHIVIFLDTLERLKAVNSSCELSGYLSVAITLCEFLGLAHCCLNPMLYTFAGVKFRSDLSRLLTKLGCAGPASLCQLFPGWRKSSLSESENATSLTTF
Assay: FACS on cells expressing species orthologues
Procedure: (§1) Binding of anti-CXCR5 antibodies to cell lines and primary cells expressing human CXCR5 or species orthologues was assessed by FACS. Briefly, approximately 1×10⁵ CXCR5 expressing cells were suspended in FACS buffer (PBS containing 1% FBS and 0.02% sodium azide) containing increasing concentrations of anti-CXCR5 antibodies ranging from 0-100 μg/ml, and incubated for 20 min at 4° C. Cells were washed and then resuspended in FACS buffer containing PE-labelled goat anti-human IgG (Jackson labs) for 20 min at 4° C. Cells were then washed 3 times and resuspended in 100 μl FACS buffer and analysed on a FACScalibur instrument (BD Sciences). MFI was plotted against antibody concentration and Graph pad prism software was used to calculate EC₅₀ values.

Binder | binding result
B5 | no binding
B6 | no binding
B7 | no binding
B8 | no binding

Biological target: T3, mouse CXCR5 (mouse, UniProt Q04683 1-374)
T3 construct: whole, on cells
T3 sequence (looked up): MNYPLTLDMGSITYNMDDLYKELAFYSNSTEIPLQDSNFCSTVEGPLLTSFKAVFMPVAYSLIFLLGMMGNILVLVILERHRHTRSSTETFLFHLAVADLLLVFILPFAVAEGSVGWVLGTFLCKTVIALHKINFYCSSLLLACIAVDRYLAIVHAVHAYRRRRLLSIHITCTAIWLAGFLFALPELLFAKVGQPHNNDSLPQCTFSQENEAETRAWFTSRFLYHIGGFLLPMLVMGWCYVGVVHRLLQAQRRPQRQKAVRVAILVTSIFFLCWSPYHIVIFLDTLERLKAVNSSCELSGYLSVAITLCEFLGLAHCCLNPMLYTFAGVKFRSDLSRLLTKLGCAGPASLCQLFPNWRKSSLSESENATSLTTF
Assay: FACS on cells expressing species orthologues
Procedure: as §1

Binder | binding result
B5 | no binding
B6 | no binding
B7 | no binding
B8 | no binding
